The source of these data is article PMC7592216.

This data set has as its system eIF4E (eukaryotic translation initiation factor 4E, cap-binding protein) (wheat). Briefly: EMSA. To be noted: 10 mM HEPES pH 7.5, 20 mM KCl, 1 mM DTT, 3 mM MgCl2, 0.1 ug/ul yeast tRNA, 1 ug/ul BSA, 1 U/ul RNaseOUT, 20 mM Tris-HCl/10% glycerol; 25 min on ice; 10 fmol ….

Regarding MTE (MCMV 3' CITE), uncapped, the equilibrium dissociation constant (Kd) was determined as 80 nM.
